{"source": "patent US20140120109A1", "key": {"[1]": {"biological_target": "full length human TL1A expressed on HEK293 cells (human) (UniProt O95150)", "sequence (O95150 whole entry)": "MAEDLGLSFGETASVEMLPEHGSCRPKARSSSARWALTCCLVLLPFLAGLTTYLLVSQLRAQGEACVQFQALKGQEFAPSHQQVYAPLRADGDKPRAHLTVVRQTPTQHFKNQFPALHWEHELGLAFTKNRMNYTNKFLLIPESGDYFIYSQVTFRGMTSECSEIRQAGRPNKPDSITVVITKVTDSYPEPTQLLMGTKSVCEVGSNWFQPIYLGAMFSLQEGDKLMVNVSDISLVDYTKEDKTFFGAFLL", "test": "flow, HEK293/hTL1A, isotype control 1 ug/ml in place of anti-hTL1A (background; same value as r16c8, printed under column 1745P)"}, "[2]": {"biological_target": "full length human TL1A expressed on HEK293 cells (human) (UniProt O95150)", "test": "flow, HEK293/hTL1A, isotype control in place of anti-hTL1A (background; columns c8-c9)"}, "[3]": {"biological_target": "full length human TL1A expressed on HEK293 cells (human) (UniProt O95150)", "test": "flow, HEK293/hTL1A, isotype control 1 ug/ml in place of anti-hTL1A (background; same value as r16c2, printed under column 1742P)"}, "[4]": {"biological_target": "full length human TL1A expressed on HEK293 cells (human) (UniProt O95150)", "test": "flow, HEK293/hTL1A, isotype control 1 ug/ml in place of anti-hTL1A (background; same value as r16c2, printed under column 1725P)"}, "[5]": {"biological_target": "full length human TL1A expressed on HEK293 cells (human) (UniProt O95150)", "test": "flow, HEK293/hTL1A, isotype control in place of anti-hTL1A (background; columns c2-c7)"}, "[6]": {"biological_target": "full length human TL1A expressed on HEK293 cells (human) (UniProt O95150)", "test": "flow, HEK293/hTL1A, isotype control 1 ug/ml in place of anti-hTL1A (background; same value as r16c2, printed under column 1804N)"}, "[7]": {"biological_target": "full length human TL1A expressed on HEK293 cells (human) (UniProt O95150)", "test": "flow, HEK293/hTL1A, isotype control 1 ug/ml in place of anti-hTL1A (background; same value as r16c2, printed under column 1817N)"}, "[8]": {"biological_target": "full length human TL1A expressed on HEK293 cells (human) (UniProt O95150)", "test": "flow, HEK293/hTL1A, isotype control 1 ug/ml in place of anti-hTL1A (background; same value as r16c2, printed under column 1805N)"}}}
{"substance": "negative isotype control antibody (human IgG4)", "values": [{"measurement": "MFI", "setting": "[1]", "result": 17.9}, {"measurement": "MFI", "setting": "[2]", "result": 17.9}, {"measurement": "MFI", "setting": "[3]", "result": 27.5}, {"measurement": "MFI", "setting": "[4]", "result": 27.5}, {"measurement": "MFI", "setting": "[5]", "result": 27.5}, {"measurement": "MFI", "setting": "[6]", "result": 27.5}, {"measurement": "MFI", "setting": "[7]", "result": 27.5}, {"measurement": "MFI", "setting": "[8]", "result": 27.5}]}
